What was measured:
codeine = experiment: In vitro N-demethylation of codeine by mammalian cytochrome P450s in crude yeast cell lysates; conditions: crude cell extract with human CPR and cytochrome b5; 0.2 mM substrate, pH 7, 30° C., approximately 20 hours; compared to negative control strain without cytochrome P450s
thebaine = experiment: In vitro N-demethylation of thebaine by mammalian cytochrome P450s in crude yeast cell lysates; conditions: crude cell extract with human CPR and cytochrome b5; 0.2 mM substrate, pH 7, 30° C., approximately 20 hours; compared to negative control strain without P450s
oripavine = experiment: In vitro N-demethylation of oripavine by mammalian cytochrome P450s in crude yeast cell lysates; conditions: crude cell extract with human CPR and cytochrome b5; 0.2 mM substrate, pH 7, 30° C., approximately 20 hours; compared to negative control strain without cytochrome P450s
salutaridine = experiment: In vitro N-demethylation of salutaridine by mammalian cytochrome P450s in crude yeast cell lysates; conditions: crude cell extract with human CPR and cytochrome b5; 0.2 mM substrate, pH 7, 30° C., approximately 20 hours; compared to negative control strain without cytochrome P450s
salutaridinol = experiment: In vitro N-demethylation of salutaridinol by mammalian cytochrome P450s in crude yeast cell lysates; conditions: crude cell extract with human CPR and cytochrome b5; 0.2 mM substrate, pH 7, 30° C., approximately 20 hours; compared to negative control strain without cytochrome P450s

B1: Hs_CYP2C8: Cytochrome P450 2C8 (P10632), Homo sapiens (protein, UniProt P10632 1-490, looked up)
Cytochrome P450 2C8: MEPFVVLVLCLSFMLLFSLWRQSCRRRKLPPGPTPLPIIGNMLQIDVKDICKSFTNFSKVYGPVFTVYFGMNPIVVFHGYEAVKEALIDNGEEFSGRGNSPISQRITKGLGIISSNGKRWKEIRRFSLTTLRNFGMGKRSIEDRVQEEAHCLVEELRKTKASPCDPTFILGCAPCNVICSVVFQKRFDYKDQNFLTLMKRFNENFRILNSPWIQVCNNFPLLIDCFPGTHNKVLKNVALTRSYIREKVKEHQASLDVNNPRDFIDCFLIKMEQEKDNQKSEFNIENLVGTVADLFVAGTETTSTTLRYGLLLLLKHPEVTAKVQEEIDHVIGRHRSPCMQDRSHMPYTDAVVHEIQRYSDLVPTGVPHAVTTDTKFRNYLIPKGTTIMALLTSVLHDDKEFPNPNIFDPGHFLDKNGNFKKSDYFMPFSAGKRICAGEGLARMELFLFLTTILQNFNLKSVDDLKNLNTTAVTKGIVSLPPSYQICFIPV
detected: in vitro N-demethylation activity on codeine (codeine) | in vitro N-demethylation activity on Thebaine (thebaine) | in vitro N-demethylation activity on oripavine (oripavine) | in vitro N-demethylation activity on salutaridine (salutaridine) | in vitro N-demethylation activity on salutaridinol (salutaridinol)
